Laboratory results from paper PMC10591846 (Cell reports, 2023).
Where no end group is shown, it is not given here. The star is where a group is joined. Biotin = O=C1N[C@H]2[C@H](CS[C@H]2CCCCC(=O)*)N1

Assays:
Test in all cases: AlphaScreen or HTRF
GST-Pirh2_(15-195) = target: T1, GST-Pirh2_(15-195) (human, UniProt Q96PM5 15-195)
T1 sequence: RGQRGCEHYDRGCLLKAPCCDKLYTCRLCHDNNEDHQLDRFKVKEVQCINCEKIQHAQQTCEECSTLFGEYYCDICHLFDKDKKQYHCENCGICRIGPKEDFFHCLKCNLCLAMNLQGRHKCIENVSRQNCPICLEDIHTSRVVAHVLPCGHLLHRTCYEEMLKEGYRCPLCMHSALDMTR

[1] = target: GST-KLHDC10 (full length) with Elongin B/C (human | , UniProt Q6PID8 1-442; Q15370 1-104; Q15369 1-112)
Sequence of GST-KLHDC10 (full length) with Elongin B/C (Q6PID8 whole entry, chain 1 of 2): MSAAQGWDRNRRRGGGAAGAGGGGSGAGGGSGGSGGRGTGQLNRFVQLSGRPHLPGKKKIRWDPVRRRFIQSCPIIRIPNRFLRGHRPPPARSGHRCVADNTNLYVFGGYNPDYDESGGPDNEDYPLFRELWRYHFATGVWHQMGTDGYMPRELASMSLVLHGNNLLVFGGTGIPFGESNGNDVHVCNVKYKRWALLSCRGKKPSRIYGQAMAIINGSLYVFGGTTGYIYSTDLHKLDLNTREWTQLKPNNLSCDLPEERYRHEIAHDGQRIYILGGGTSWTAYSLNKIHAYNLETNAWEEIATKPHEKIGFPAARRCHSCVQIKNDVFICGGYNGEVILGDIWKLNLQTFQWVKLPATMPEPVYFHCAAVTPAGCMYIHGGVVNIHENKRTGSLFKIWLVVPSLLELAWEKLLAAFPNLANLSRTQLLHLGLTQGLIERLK
Sequence of GST-KLHDC10 (full length) with Elongin B/C (Q15369 whole entry, chain 3 of 2): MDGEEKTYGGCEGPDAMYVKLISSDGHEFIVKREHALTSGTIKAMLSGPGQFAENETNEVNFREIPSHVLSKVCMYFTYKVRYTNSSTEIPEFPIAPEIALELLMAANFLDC

GST-Pirh2_(1–195) = target: T2, GST-Pirh2_(1–195) (human, UniProt Q96PM5 1-195)
T2 sequence: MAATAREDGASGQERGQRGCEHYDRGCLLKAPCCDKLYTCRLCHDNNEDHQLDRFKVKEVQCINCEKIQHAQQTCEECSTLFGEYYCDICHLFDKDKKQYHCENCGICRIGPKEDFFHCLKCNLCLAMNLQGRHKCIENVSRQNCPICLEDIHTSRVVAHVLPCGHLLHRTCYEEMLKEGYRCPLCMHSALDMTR

KAAAAA
binding result (GST-Pirh2_(15-195)): binds

Biotin-MDELYKAAAAAA [Biotin-MDELYKAAAAAA]
binding result [1]: binds

MDELYKAAAAAG
IC50 (GST-Pirh2_(15-195)): ~2000 nM

MDELYKLAAAAA
IC50 (GST-Pirh2_(15-195)): ~60 nM

MDELYKGAAAAA
IC50 (GST-Pirh2_(15-195)): ~60 nM

MDELYKAAAAAD
IC50 (GST-Pirh2_(15-195)): ~26000 nM

MDELYKAAALAA
fold reduction of binding against the Ala6 peptide (GST-Pirh2_(15-195)): 3 fold

MDELYKAAGAAA
fold reduction of binding against the Ala6 peptide (GST-Pirh2_(15-195)): 100 fold

MDELYKAAAAA
IC50 (GST-Pirh2_(15-195)): ~50 nM

YKAAAAA
binding result (GST-Pirh2_(15-195)): binds

DELYKAAAAA
binding result (GST-Pirh2_(15-195)): binds

MDELAAAAA
binding result (GST-Pirh2_(15-195)): binds

LYKAAAAA
binding result (GST-Pirh2_(15-195)): binds

MDELYKAAAA
IC50 (GST-Pirh2_(15-195)): ~2000 nM

ELYKAAAAA
binding result (GST-Pirh2_(15-195)): binds

MDELYKAAAAAA [MDELYKAAAAAA (Ala-tail peptide, non-biotinylated)]
IC50 (GST-Pirh2_(15-195)): 50 to 120 nM | IC50 (GST-Pirh2_(1–195)): 90 to 120 nM | IC50 [1]: 5 to 10 nM

MDELYKAAAAAA-NH2 [MDELYKAAAAAA-NH2]
fold reduction of affinity against the Ala-tail peptide with free carboxyl (GST-Pirh2_(15-195)): ~2000 fold
